Test: label from the status in PepcDB records

Protein production, failed:
MRGEGRRIGAMSETPEIPGSGYRTGEALLRAGDIAGAITAFRGHLAASPDDALGWFALGSALFFAQRWEETRAAYARAAAIDRAYTLGGLLRPGDVETALDPAPFLGQLPEMSMIIPPAHSGPLAVVGCDSAYFLDFGAALALSMDKAAPGWGLHLHLIAPTTPALDLLERLIGGLRAITLSFSLEHLPPALRAPEAQRTYLACLRFMRLPAILDEQQARAGRVPVVVLDADSLMCKPLLGPDDWRPPGPEGGWRAGWDVALKDSGLFPLGPLWRYSASCVGLAPTDEARAFAAHVATLLARQALTVNGLGWMIDQFALAVAIAARQTQSPAFRLGDWPDRLYRLYENPPDAALWSFCSQSKYDDRLYRDMVRLLLAEMG
MRGKRGFFGHADSRVRLFCRRLTGKQRILLAGTASFLLAASCLYSILSCVSRFGEPGQRPAMGHIRSVVFRPERTRNIHSNIHKHENGLSENQGTARSVK
MRGPFMGFSIEFGEANLDKLGVRRTSERVSQPPLTLKNYALSRSIGRGNTSDVRLATGPDGREVAIKLPLPATLRQHDAAERFGNEVRLTLQFRHPHVVRGFAGTPFGPGAFLALFYYPDGPLSNRLRGQPLPNEEALRILADIAAALAYLHRLGAVHQDVKPQNVYVSGGRAALGDLGSAYFVAQGSKTSGSPYYMAPEVYHGESTSSASDVYSLGVMAWELLTGARPFSGNSYEELMVAHLSRFPAPLASLRPELPRALSRLLDRTFAKRPHERPTADALRRALLEALGETPQEEDLPAEEVPLASQQAGRHTAAPRVTGPQGPAETPAQPERVRPARRGWNPFRRKG
MRGRFFFRSFEATLIGSEFLVSPETPGTRFAKAPSFRSKTEKDLCSAHGAAASGVLPLGLLEELVRSSPRSSQASGPAGSRQPAQRAPGHQVPAAKMLELLVASLSLALAFFALLDGWYLVRVPCAVLRARLLQPRVRDLLAEQRYAGRVLPSDLDLLLHMNNARYLREADVARAAHLTRCGVLGALRDLNAHTVLAASCARYRRSLRLFEPFEVHTRLQGWDDRAFYLEARFVSLRDGFVCALLRFRQHVLGTSPDRVVQHLCKRRVEPPELPEDLKHWISYNETSSQLLRAESGLSDRKDQ
MRGRMTRSQLILAILAGLVISIDNMISIVAFSSLIYQGALEIYIPLVINILAISVIIISASYLFMSSPPYAIAQLQDEAAILYSAMGLVIIKSMPSSSTNEAIFITILFMLGVTTCLTGLSFYFVGKFRFGNIIRYLPYPVICGFMAATGWLVLSGTFALLTGKALHQNWLVFFHKEEILLWAPGFIAGIVVYIFKEKLGYRYALQLMFISLVILFYALFYIFNLEYLVDPTEGYVLGPFNQSHIDSLMKPEIWQMIHYPFSMTLLNYIGLVILVSFIALLLNASSYELIVNKQLDLNKELRIAGIGNVFSGLLGGMVGYLSLSASTVAKEYGGARIIGVMAFVPMLLILCFGAVVVECFPKMAIGCYLFYIAFCFLSEWLINTWRLLNLSEYLIVLLILVIAIVFNMITAVAIGTVISIFIFAFRYSKINPVKYLFSGADYNSSFERNPISQSILSTQGDEIQFLKLQGFLFFGSIYRLLQLIKSIQKARYIILDFELVYNIDSSRIILMKNLKLHAEKNNISFAICSLKPIVYHELMKTNLLQSKTNWLKVFTDQESALEWCEDQVIEKYTENINIEEVTLEKQLLYLGFSSELVAWISEKASIKPYNPDDIICHEGEESNSVYFIHRGRVTAFVGDKRVLVVGSGNVLGEIAIYTHKKRTATLKTNEKTIVYEIDLKSIQELSKNKPLLLVQFHVCMAKILANRLSVLNKRIKVFDSTAILQ
MRGWICVKLTKLNIKKYRAPIYKYALANVNLRSAKSTNSSIITVIPQGAKMEVLDEEDDWIKVMYNSQEGYVYKDLVSVSEYAWSNLNLREDKSTTSNIITVIPEKSRVEVLQVDGDWSKVVYDDKIGYVFNYFLSIDGNKPNELDYKYFYTDMIKFVNENNIKSTSDYLIVTDLRNKYTYIFKKDNGGWGQLYKWQCTIGKPETPTITGIFYISGRKPSFGTDEYSVKYATRIKGGYYYHSVLYDSTGSYIIDGRLGEALSHGCIRLSTENAKWIYDNIPDTTTVIIH
MRHMSGDHAALVLGAGAGRRLGRSKQLLMRDGEPLLRRAARIALLTAPRRCVVVLGADADTLSEVLQDLDIEILRHPDWSEGMGSSLAALRRHVQGDPALRRSLILGCDQPALDAPHLRSLLEEADRAVSGCATSGYSGVRGIPAVVTHTAWADVPLQADSGLRGLFASLDMQSLGCVSAPALALDIDTPADLATAQQRGWVDAELEHHHHHH
MRIAAALLAIALTGLSGAVWAETSAAIVARKPDLFHPETGLRIDRQRAPVPEDIPPPARKISALWARKLIARGALALDVYGAAQSRYDELDGTWLVPEPRQSLPGAVWLPEVGRGVLDAALQVYLERELERLTGGSKARAIVVFCVADCWMSWNAAQRIAGMGYLQVYWFPLGTDGWRELGWPLEPVEPVPVPVD
MRICMVSDFFYPSIGGVEEHVYNLSQMLLSLGHKIVVLTHAYGDCSGIRYVTGYLKVYYLPIKVCYNQCILPTAVCNVPMLRAVLLRERVEVVHGHSAFSALAHEALMVGSLLGLKTVFTDHSLFGFADLSAALTNNLLEVNLGMVNHAICVSHIGKENTVLRARVAKHRVSVIPNAVDTALFTPDPQQRPSNDIINIVVASRLVYRKGIDLLAGIIPRFKNTPNINFIIVGDGPKRDLLEEIREKTNMQERVQMVGAVEHNRVRDFLVRGHIFLNTSLTEAYCMAIVEAASCGLQVVSTSVGGIPEVLPKSLILLAEPEIDAIYAAILIAIDRHRKSSFKVSPSVGNGHLASDANGKVKRRRRRKVDTPISPTQLPAVSAPPADQNSSTEPVMCPYRCNELVETLYNWEDVALRTVKVYDRVLNERSFTTSELVFAVWQHGSWFLVFFVVAHFLMRLLELWRPRKHVEIAQDVQRRAS
MRIECYSWSDVSEQILEQAIALQNSAFEDMKGNFYQVDIPYKLVLAIDDNQVIGHVAVYLRDVYLDSFPETIGILSCVVVAHKYRGKGVAASLIKMAHAILKEHSVNFSILFAVSHAYYLSSGYIPMKNLTRFIENNEKKEFIYDGGMVCELGSQNWNVNILELNGEVV
MRIGIMGLGRIGAFHAETLSGLPAVTSLVVTDPFTDAAKSAAERFGAEVADSPEAVLAAGVDGVVVAAATDAHPGLVLAAVEAGVPVFCEKPVARTMREGVAVLEAVRDAGVEIQIGYNRRFDAGFVAARAAVASGELGALHTVRSTTLDPAPPPPAYVAASGGIFRDCSVHDFDIIRWVTGREVVEVYATGGNRGADYIAAAGDADTTAAVLTLDDGTLAVVSNSRHNARGHDVRMELHGFRDSIAVGLEDRLPLRSVEPGTSFPAGTPHDFFMDRFAAAYRAELTAFTEVVAGRRPSPCTVADALEAGWIAEACTLSLHSHRPVTVEEVRRQS
MRIIAITEKVIKELFRDKRTLAMMFLAPILIMFLMNVMFSANSNTKVKIGTINVNTKVVSNLDNIKHIQVRSFKFNSSAKKALKSNKIDALISEDNKSYTVFYANTDSSKTTLTRQAFKTAVNTMNSKELISQVKILANKNPKLAQSLQTRSKYIKEKYNYGNKNTGFFAKMIPILMGFMVFFFVFLISGMALLKERTSGTLDRLLATPVKRSDIVFGYMLSYGILAIIQTIVIVLSTIWLLDIQVVGSIFSVIIVNFILALVALSLGILMSTLAKSEFQMMQFIPLIIMPQLFFSGIIPLENMASWAQTVGKILPLSYSGDALTKIIMYGQGLPNVSSNLLVLLLFLIILTIANIFGLKRYRKV
MRILIASQPIAGHVLPLREIARELARRGHELRWYTGRKFRPQVEAAGAVWEGFVHARDYDDANFDAAFPGRSARRGLAQLLFDLRHVFVGQMEGQFYDLRDLERRWRPDVVLADQTVGAALLREELGGPPVALLGVLPLGIASRDTAPFGLGLAPLGGAAGQLRNRALQVLTERVVFRGISAQLADLCTWLGLPARSFAPPVAPSLMLQPSVPRLEYLRRDLPPQVRFIGPLVLPAGEFTPPAWWNDILTAERPVVLVTQGTLATRPEQLLRPALAALADEDVLVVAAGVAPERLGPLPANARAAAFVPFTALLPHVAVSLTNGGYGGTVQALSHGVPCVVAGRSEDKAEVAARVAYSGAGLNLGTATPSPARIRAAVRRVLREPAFREQAGELGHELRQHDAPREAADWLETLGGKKLEHHHHHH
MRILIPFKANNPKSRLSSILSEEERKELARLMLLDVIDAAKPFGEIKVVCPSELDVEGVEVVVDTSDLNTTVNKVMDEAPLAVIMSDLPLLSEEVLKRFFETEGDVVVAPGRKGGTNMLLVRKRGFRVSYHFGSFFKHLEMARKMGMKAKIFDSFYSSVDIDDESDLLELMMHGSGKKSYEFLRKIGFSVSFEETPRLERRVFMQ
MRILLVLAHPLEDSFAAAVARTAREALEASGHVVDLFDLYAENFDPRLSKAERGGYFDQPYDTSAVADIVARLKAADGLILVFPQWWFNFPAILKGFFDRVFAPGVAFSHDAAGGRIVPQLTHIRLLYALTTTGSPWWLVRLYMGDPVRRLLKRGIAAFCSKGLNFRMLSLHDMDRASDVKRRAHLDRVRKLLSAIR
MRISKTTKIGALTLIALFLLYFGLNYLKGFNVFKRANVYYAAFPEVKNVNIASPVLVNGYKVGVVKSLSFDYKNGRSIVVGIDLESEYRMPKGSHLAIHQTALSGAELRIIQGDPRDGYLNPGDTIRSETPDDIMSVTSNKIVPSVVNMMPKVDSVIVGLANMVNNPNLAVMMENMAATAQRLNRLTASLDKSIGTQLPAVMANTRTITDNVAMLSEELKQLKLEALMAELQATSENLRSFSDQIRNSNGSLGMLLNDKSLYMRLDSMASSADALLRDLKANPKRYVHFSVF

Protein production, not failed:
MRGMAANQGERIRRRLSTGERREQLLSVGARLFSESPYDEVWIEQVAEIAGVSRGLLYHYFPNKRDFFAAVVERESERMLRMTAAVPGVPVREQLTAGLDAYLEYVRAHAHGYRAFHRADAAGDRAVRRVYQKALAAQERQILAALAADPEFGPAFEERGDVRLAVRGWLAFTTAVCLEWLRDPEPAREQVRDLCARALLGAVAP
MRHISPEELIALHDANISRYGGLPGMSDPGRAEAIIGRVQARVAYEEITDLFEVSATYLVATARGHIFNDANKRTALNSALLFLRRNGVQVFDSPELADLTVGAATGEISVSSVADTLRRLYGSAELEHHHHHH
MRHLKSGRKLNRHSSHRLALYRNQAKSLLTHGRITTTVPKAKELRGFVDHLIHLAKRGDLHARRLVLRDLQDVKLVRKLFDEIAPRYRDRQGGYTRVLKLAERRRGDGAPLALVELVE
MRHRGGRGFRGWWLASTILLLVAEKPSHGYELAERLAEFGIEIPGIGHMGNIYRVLADLEESGFLSTEWDTTVSPPRKIYRITPQGKLYLREILRSLEDMKRRIETLEERIKRVLQEE
MRILDYDKVIERILEFIREKGNNGVVIGISGGVDSATVAYLATKALGKEKVLGLIMPYFENKDVEDAKLVAEKLGIGYKVINIKPIVDSFVENLELNLDRKGLGNIMSRTRMIMLYAHANSLGRIVLGTSNRSEFLTGYFTKWGDGASDYAPIINLYKTEVWEIAKRIGVPERIVKKKPSAGLWEGQTDEDELGISYNLLDEILWRMIDLKIGKEEIAKDLGIPLSLVERVEELIKKSEHKRRLPIGPSFEDLIVGP
MRKAWVKTLALDRVSNTPVVILGIEGTNRVLPIWIGACEGHALALAMEKMEFPRPLTHDLLLSVLESLEARVDKVIIHSLKDNTFYATLVIRDLTYTDEEDEEAALIDIDSRPSDAIILAVKTGAPIFVSDNLVEKHSIELEVNETQDEEEEFKKFVENLNIDTFKQMIEKKREEDEEGES
MRKEIRFSGFGGQGIILAGVILGRAASLYAGKEAVQTQSYGPEARGGASKSEVVISEIEIDFPKVIQPDILISMSQPAFDKYGYDLKENARVIVDRDLVNLPEGYEEKYEVYKVPFTEIANKEVGLGIVANIVMLGALTKLSGLVPKEEVEKALLDSIPKGTEKKNLMAFEKGYEYL
